Laboratory results published in article PMC3573685.
Where two headings read alike, the source gives them in different places.

How the values were obtained:
[1] = target: Aquifex aeolicus TatC (Aquifex aeolicus); test: ITC
[2] = target: Aquifex aeolicus TatC (Aquifex aeolicus)

Chain of Tat signal peptide of the E. coli protein SufI (P26648 1-27 limits assumed): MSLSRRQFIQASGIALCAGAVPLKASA

| Substance | Kd [1] [nM] | stoichiometry N [1] | stoichiometry N [2] |
| --- | --- | --- | --- |
| Tat signal peptide of the E. coli protein SufI | 3000 | 1 | – |
| Aquifex aeolicus TatC (natural protein) | – | – | 2 |
